± gives the standard deviation of the averaged measurements.
What follows are sequences tested on Saccharomyces cerevisiae (assay: protein stability index of tFT-peptide fusion (C-terminal peptide) (PSI (0-1 scale)); higher = more stable (slower turnover)). Conditions: genetic background: wild type; temperature: 30 C.
Protocol: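 Multiplexed protein stability (MPS) profiling in S. cerevisiae. Random 12-aa peptides (tFT-X12 library) are fused to the C-terminus of a sfGFP-mCherry tandem fluorescent timer, after mCherry and a GGGS linker. Cells are FACS-sorted into 8 mCherry/sfGFP bins and deep-sequenced. The protein stability index (PSI) is the read-weighted bin average, scaled from 0 (unstable) to 1 (stable). Only peptides with >10 reads are reported; cells were grown at 30 °C in SC-His with glucose.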
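Further: PSI is a weighted mean of sequencing reads over stability bins, variants kept only with over 10 reads, mCherry proximal and sfGFP distal, peptide attached via GGGS linker.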

Sequence | protein stability index
KKKKKSKKKETR | 0.807 ± 0.11
KKKKNHKRKKRN | 0.828 ± 0.041
KKKKNKKKKKPK | 0.615 ± 0.041
KKKKQKIRKVKK | 0.725 ± 0.084
KKKKTKPKPKRM | 0.6594 ± 0.0047
KKKNRKQKHKQL | 0.565 ± 0.014
KKKQKKERKKTK | 0.649 ± 0.042
KKKRKDKTKIDK | 0.658 ± 0.057
KKKRKKKNRGKK | 0.6789 ± 0.004
KKKTKTQTGKKS | 0.744 ± 0.016
KKKTRIYKRQKR | 0.655 ± 0.077
KKLGLINITIRV | 0.535 ± 0.017
KKLNTYISQIEQ | 0.707 ± 0.0079
KKMKSKTKEINK | 0.698 ± 0.035
KKMKVEKGITQK | 0.775 ± 0.068
KKNKKKNRTKIE | 0.657 ± 0.022
KKNMIIRVMIGV | 0.495 ± 0.074
KKQEKKKNKNDR | 0.646 ± 0.028
KKQKEKEKLVYC | 0.733 ± 0.085
KKQNRTRLKKSK | 0.702 ± 0.03
KKQQTIKKKKKR | 0.7014 ± 0.003
KKRHERNYLVQS | 0.662 ± 0.066
KKRRTCPNRRDK | 0.554 ± 0.036
KKRTQKKKKYNR | 0.6943 ± 0.0063
KKSRLNRIVMRH | 0.664 ± 0.073

Sequence | protein stability index
KKTEKKYNRNRG | 0.786 ± 0.1
KKTKKKRGEYKK | 0.714 ± 0.017
KKTLIQKEQIRR | 0.644 ± 0.022
KLKDRRKNTEEI | 0.6961 ± 0.0033
KLKKNKTREMET | 0.789 ± 0.018
KLNLKVRKRERP | 0.66971 ± 0.00065
KLPRPPQRLRLP | 0.684 ± 0.066
KLQKINKIKNEI | 0.685 ± 0.032
KLSIWRADKDLE | 0.688 ± 0.015
KLSTGRGRTGYV | 0.698 ± 0.072
KLVKWEGGYIVS | 0.61 ± 0.019
KMGRTEIWTIHL | 0.685 ± 0.053
KMSEERIGIEKN | 0.7038 ± 0.0029
KMYKRPNYQKTK | 0.64 ± 0.024
KNGQGQRKIPGK | 0.721 ± 0.023
KNITIKKSKIKD | 0.61 ± 0.055
KNKKNKCNKVKK | 0.726 ± 0.024
KNKKYKNKQKQR | 0.714 ± 0.094
KNKMGRKYTLPH | 0.654 ± 0.081
KNKTKQKTRTET | 0.704 ± 0.013
KNKTLNKIIRLP | 0.717 ± 0.042
KNKTTKKRKKRP | 0.695 ± 0.057
KNNITTTNKRMK | 0.679 ± 0.0071
KNRAEMREGIAL | 0.63 ± 0.018
KNRENNTKIEIQ | 0.661 ± 0.014

Sequence | protein stability index
KPALPPITPNLC | 0.6727 ± 0.0036
KPQAGPSRHPPS | 0.759 ± 0.064
KQGHNEIMTKGK | 0.6814 ± 0.0015
KQIPLFILRPQT | 0.704 ± 0.1
KQKARRARGKEG | 0.65 ± 0.024
KQQCKTGRRRLV | 0.716 ± 0.072
KQQRTKKKEKKR | 0.628 ± 0.097
KQRSKKCRETYR | 0.729 ± 0.019
KQRTMNKVSKEK | 0.683 ± 0.045
KQTICNTGPQWV | 0.6267 ± 0.0022
KREKGLKQIVRL | 0.6827 ± 0.0029
KRESETPKKHRK | 0.711 ± 0.068
KRGRGPQFCDLY | 0.693 ± 0.045
KRIQGEICVPGA | 0.682 ± 0.041
KRITRKRIKRRR | 0.7772 ± 0.0015
KRKDKKKKYIRK | 0.759 ± 0.085
KRRKKKSKERER | 0.672 ± 0.015
KRRNKTNREDTM | 0.68 ± 0.052
KRTKKKKKMELE | 0.719 ± 0.013
KRYRLRVKIGNT | 0.5291 ± 0.0046
KSAPAIRASRPR | 0.715 ± 0.0064
KSEGKKHIDKKR | 0.63 ± 0.034
KSEKKKKRKEKK | 0.718 ± 0.052
KSGLMFCIGDWC | 0.7 ± 0.044
KSKGVRITKVSN | 0.783 ± 0.02

Sequence | protein stability index
KSKIKKKKQTKR | 0.652 ± 0.051
KSRKEREKSDNQ | 0.678 ± 0.037
KSSNIDINCNQN | 0.691 ± 0.053
KSVMVLRLLELK | 0.636 ± 0.032
KSVPLCSLGTTG | 0.6726 ± 0.0036
KSVQEPTPRKYR | 0.674 ± 0.026
KSVSIKGKFTSK | 0.6494 ± 0.00087
KTCGVGLDRMIG | 0.714 ± 0.0099
KTKKKQKQHRKQ | 0.686 ± 0.033
KTKVIFMYKKGQ | 0.675 ± 0.021
KTMCNNLTKLQR | 0.622 ± 0.029
KTNKKTIVKSQT | 0.674 ± 0.046
KTQKYEIKNLKK | 0.581 ± 0.082
KTRQSNAPRRTF | 0.707 ± 0.0091
KVGQWLRGKSKR | 0.7171 ± 0.00075
KVNKKKVITKQE | 0.713 ± 0.027
KVQRINNKKERK | 0.677 ± 0.044
KVWQISEVGAGY | 0.617 ± 0.024
KYGTPFPPEVEM | 0.718 ± 0.034
KYNKQRQTRIET | 0.663 ± 0.019
LAARHLNFPPIL | 0.711 ± 0.009
LACTGFPPPFPL | 0.675 ± 0.017
LADFLGVSLLAV | 0.5695 ± 0.0031
LAFSGAWGILPL | 0.682 ± 0.067
LAHRASICLARL | 0.695 ± 0.063

Sequence | protein stability index
LALEVSNLSCSV | 0.696 ± 0.022
LALFDPAQRHAR | 0.704 ± 0.052
LALWNGVSMEEE | 0.654 ± 0.039
LALYISFGLSLI | 0.526 ± 0.031
LALYPYIPDSPF | 0.636 ± 0.048
LAPPPPAPPMSP | 0.717 ± 0.013
LAPPVRECPFML | 0.692 ± 0.072
LAPSPPPPPLPL | 0.677 ± 0.01
LAPSPTSRPIKC | 0.677 ± 0.018
LAPTPLAPSPPP | 0.728 ± 0.055
LARTSVACEGLG | 0.703 ± 0.045
LASLVANSRNSL | 0.798 ± 0.27
LATLLIRLLGQA | 0.496 ± 0.0088
LCAGASYTMTVP | 0.694 ± 0.021
LCCMFGLAGRGV | 0.654 ± 0.0083
LCFPHDFFSSSS | 0.7768 ± 0.0058
LCGALWGAARGE | 0.728 ± 0.019
LCKGCEGGVMQR | 0.666 ± 0.037
LCPSLSSPTSAT | 0.659 ± 0.029
LCPWRYAVLFSP | 0.645 ± 0.068
LCRFPSSPQLPS | 0.7236 ± 0.0071
LCRLTNVCGAVV | 0.6543 ± 0.004
LCSPKPASAPGH | 0.668 ± 0.032
LCVLFVSKPTPE | 0.67 ± 0.019
LDLVFYMFSPFL | 0.618 ± 0.061

Sequence | protein stability index
LDTRTLGVLTVG | 0.633 ± 0.025
LDVGSFLALRMR | 0.627 ± 0.036
LEPSDMDTDSDG | 0.706 ± 0.018
LESCFFGSFFFL | 0.778 ± 0.091
LESGSARLFLWI | 0.746 ± 0.16
LEVVVVGGVGGG | 0.687 ± 0.085
LFAHPPSPPSAP | 0.654 ± 0.016
LFCHHCASLVDL | 0.722 ± 0.002
LFDRFVAGVRYG | 0.656 ± 0.021
LFFFPRRLSPPT | 0.722 ± 0.05
LFFRLRSLLSRS | 0.623 ± 0.0063
LFGIGFFSFICS | 0.537 ± 0.074
LFGTGVRCGVCS | 0.637 ± 0.092
LFHHLAPRPAPP | 0.698 ± 0.051
LFIGLAAVHAHY | 0.687 ± 0.11
LFLFAPRPPPPP | 0.717 ± 0.03
LFLSIRRFRCRL | 0.58 ± 0.057
LFPALFWPTSTL | 0.743 ± 0.032
LFQKRAIGGAWL | 0.742 ± 0.039
LFRFFPWPPPPA | 0.682 ± 0.034
LFRPTPPSFAPP | 0.683 ± 0.048
LFSARRKSPTSL | 0.708 ± 0.058
LFSGPYRYKAYM | 0.7273 ± 0.0061
LFSSLLLPNALR | 0.69 ± 0.038
LFVHTPCPFEVR | 0.673 ± 0.023

Sequence | protein stability index
LFWFVSLWGGFA | 0.529 ± 0.073
LFYYLFRYFFPP | 0.548 ± 0.0094
LGAWAGGGASSG | 0.704 ± 0.03
LGEDRVKYQKLW | 0.7234 ± 0.007
LGFGCVYCGEAW | 0.689 ± 0.033
LGFLSSLLCRSL | 0.779 ± 0.068
LGGASNGCSTLK | 0.718 ± 0.091
LGGAVLSRFGAR | 0.738 ± 0.047
LGGGGGVECRVG | 0.672 ± 0.058
LGGGGRGFAGRK | 0.618 ± 0.029
LGGGSGCVEGGL | 0.713 ± 0.082
LGGRNNRQMSSG | 0.678 ± 0.11
LGGVGSSGDVVA | 0.648 ± 0.017
LGGWWVWSWGRG | 0.66 ± 0.023
LGHVHLIGDIVC | 0.7042 ± 0.0039
LGKAVSDMDETH | 0.687 ± 0.026
LGLMSSCFSMWC | 0.657 ± 0.15
LGLSLPCRGFTL | 0.682 ± 0.0073
LGMMIPQILDFV | 0.586 ± 0.014
LGNFENDEGSQK | 0.735 ± 0.026
LGRCSTLLYCGP | 0.669 ± 0.03
LGRGRGGPLSGG | 0.7014 ± 0.003
LGRPCGGVAGEQ | 0.637 ± 0.014
LGRSGCRGGYVG | 0.622 ± 0.014
LGRSRYADVQFC | 0.77 ± 0.021

Sequence | protein stability index
LGSGGLMEPWCG | 0.644 ± 0.11
LGSGSTQGWAGG | 0.667 ± 0.035
LGVGGGGRGVRG | 0.728 ± 0.12
LGVGGRWVAPGA | 0.678 ± 0.094
LGVLGGWRRFGV | 0.72 ± 0.031
LGVLRALLGEGM | 0.688 ± 0.033
LGVWGGGRGVRG | 0.7206 ± 0.0051
LHAHTAPAHPKT | 0.689 ± 0.0087
LHGDLLFSVYVL | 0.597 ± 0.083
LHHPPSTHRGPD | 0.711 ± 0.004
LHLRPPHPPLPS | 0.717 ± 0.015
LHLVRLEGEECL | 0.677 ± 0.027
LHLYPSLLLPGL | 0.742 ± 0.074
LHPLHSSSPRVS | 0.704 ± 0.026
LHPPHPPPSPPP | 0.626 ± 0.1
LHPPLTLTFYLS | 0.555 ± 0.0089
LHPPRPTPKHPA | 0.608 ± 0.0093
LHPSPPSPLPPP | 0.723 ± 0.028
LHPSPQRHKTLQ | 0.743 ± 0.017
LHRLRLASRAAL | 0.719 ± 0.068
LHSPATAPHRPP | 0.67 ± 0.022

From the supplement of paper PMC10724198
